Reference: paper PMC4376737, “An S188V Mutation Alters Substrate Specificity of Non-Stereospecific α-Haloalkanoic Acid Dehalogenase E (DehE)” (PLoS ONE, 2015)

Assays:
Details in all cases: 0.1 M Tris-acetate pH 7.6, 30°C, apparent
[1] = tested on: C[C@@H](Cl)C(=O)O; experiment: purified protein
[2] = tested on: C[C@H](Cl)C(=O)O; experiment: purified protein
[3] = tested on: T1, C[C@@H](Cl)C(=O)O; experiment: colourimetric chloride release (Bergmann and Sanik), A460; assay type: biochemical, Rhizobium sp. RC1
T1 construct: recombinant from pET-22b(+)-dehE in E. coli, purified from cell-free extract; 32 kDa band on SDS-PAGE; monomeric
Source text: (§1) colourimetric chloride release (Bergmann and Sanik), A460 on DehE (non-stereospecific α-haloalkanoic acid dehalogenase E)

[4] = tested on: T2, O=C(O)CCCl; experiment: as above; assay type: biochemical, Rhizobium sp. RC1
T2 construct: recombinant from pET-22b(+)-dehE in E. coli, purified from cell-free extract; 32 kDa band on SDS-PAGE; monomeric
Source text: as §1

[5] = tested on: T3, C[C@H](Cl)C(=O)O; experiment: as above; assay type: biochemical, Rhizobium sp. RC1
T3 construct: recombinant from pET-22b(+)-dehE in E. coli, purified from cell-free extract; 32 kDa band on SDS-PAGE; monomeric
Source text: as §1

In the case of “DehE (non-stereospecific α-haloalkanoic acid dehalogenase E) (Rhizobium sp. RC1)”, the Km [1] is reported as “(4.8 ± 0.03) x 10^-4 M”, the kcat [1] is reported as 7.76 s⁻¹ and the kcat/Km [1] is reported as 16100 M⁻¹ s⁻¹. The Km [2] was “(4.3 ± 0.02) x 10^-4 M”, the kcat [2] was 12.3 s⁻¹ and the kcat/Km [2] was 28600 M⁻¹ s⁻¹.
With “DehE (non-stereospecific α-haloalkanoic acid dehalogenase E) (Rhizobium sp. RC1; S188V)” the Km [3] was “(4.5 ± 0.01) x 10^-4 M”, the kcat [3] was 9.18 s⁻¹ and the kcat/Km [3] was 20400 M⁻¹ s⁻¹. For the same substance, the Km [4] was “(4.9 ± 0.02) x 10^-4 M”, the kcat [4] was 12.6 s⁻¹ and the kcat/Km [4] was 25600 M⁻¹ s⁻¹. For the same substance, the Km [5] was “(4.2 ± 0.02) x 10^-4 M”, the kcat [5] was 13.1 s⁻¹ and the kcat/Km [5] was 31200 M⁻¹ s⁻¹.
